Values of other authors, collected in publication PMC7092810.

Molecular target: Cyclophilin A (Homo sapiens) (UniProt P62937)
Sequence (P62937 whole entry): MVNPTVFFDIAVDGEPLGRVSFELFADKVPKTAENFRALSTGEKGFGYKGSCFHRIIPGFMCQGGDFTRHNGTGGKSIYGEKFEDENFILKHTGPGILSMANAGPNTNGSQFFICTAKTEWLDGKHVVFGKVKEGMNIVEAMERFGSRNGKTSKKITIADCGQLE

HIV-1 capsid protein CA, sequence (O93182 133-363): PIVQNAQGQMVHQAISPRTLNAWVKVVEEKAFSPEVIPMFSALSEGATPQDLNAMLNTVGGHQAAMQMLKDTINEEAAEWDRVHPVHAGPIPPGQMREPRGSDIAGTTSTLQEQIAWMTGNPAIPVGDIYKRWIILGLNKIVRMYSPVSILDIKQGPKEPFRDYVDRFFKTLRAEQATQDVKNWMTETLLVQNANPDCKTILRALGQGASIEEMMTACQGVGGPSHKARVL

In the case of “HIV-1 capsid protein CA (from UniProt O93182)”, the Kd is listed as 16 µM.
